Measurements from patent US20250154215A1, “PHARMACEUTICAL COMPOSITION FOR TREATING COLITIS OR COLORECTAL CANCER COMPRISING COLON-TARGETED S100A8/A9-DERIVED SPECIFIC PEPTIDE” (Industry-University Cooperation Foundation Hanyang …, priority 2023, published 2025).
Entries after “also recorded” stand apart in the source; their conditions may differ.

What was measured:
[1] = type: in vitro ADME; conditions: human, microsomes, 0.5 h
Experimental: 0.1 M phosphate buffer (pH 7.4) and S100A8/A9 peptide ([…]) or rCT-S100A8/A9 protein (10 μg/mL) were added to human liver microsomes (0.5 mg/mL). After incubation at 37° C. for five minutes, the NADPH-generating system solution was also added and incubated again at 37° C. for 30 minutes. To terminate the reaction, acetonitrile containing an internal standard (clopramide) was added, and the resulting mixture was centrifuged for five minutes (14,000 rpm, 4° C.). The supernatant was then injected into an LC-MS/MS system to analyze the microsomal stability of the tested substances.

[2] = AOM/DSS-induced colitis-associated colorectal cancer (CAC) mouse model; type: in vivo, mice
From the text: Weight of mice compared to baseline during AOM/DSS administration. In this experiment, weight loss is a surrogate indicator of colitis severity. Data is representative of two independent experiments with similar results. […] Note the higher tumor burden in the distal colon/rectum and the characteristic wrinkled texture of the proximal colon with little tumor growth. […] Most tumors are located in the distal colon, and their sizes are less than 2 mm. Data is shown as the mean±SD of six experiments. […] H&E and β-catenin stained slides show dysplastic changes similar to human colonic adenocarcinoma;
DSS-induced acute or chronic colitis and AOM/DSS CRC mouse models were prepared using 6-week-old C57BL/6 female mice (Samtako Bio, Osan, Korea). To assess the induction of acute colitis, mice were exposed ad libitum to 3% (w/v) dextran sodium sulfate (molecular weight: 36-50 kDa, MP Biomedicals, Santa Ana, CA, USA) dissolved in drinking water. The mouse models are illustrated in FIGS. 7A, 5E, and 6A. DSS solutions were prepared every two days. […] The humane endpoint for weight loss (requiring euthanasia) was 20% (compared to the original body weight of an animal). Without an approved exception request, body weight loss could not exceed 20%.
AOM/DSS-treated mice were administered rCT-S100A8/A9 four times according to the administration frequency during three DSS cycles until week 10 (FIG. 9A, top). […] Tumor induction by AOM/DSS treatment was mainly observed in the distal colon and produced colonic shortening in the CAC mouse model.

[3] = The results of in vitro plasma stability, microsomal stability, CYP inhibition and PK profile of S100A8/A9 peptides and rCT-S100A8/A9 proteins
Experimental: (§1) Table printed on a drawing sheet, Fig. 5B
(§2) Title: The results of in vitro plasma stability, microsomal stability, CYP inhibition and PK profile of S100A8/A9 peptides and rCT-S100A8/A9 proteins
(§3) The patent's description of the figure: FIGS. 5A and 5B show the drug-like properties of rCT-S100A8/A9. […] Bacteria-purified 6×His-rCT-S100A8/9, rVehicle or rCT was analyzed by Coomassie staining or IB using αHis (bottom, left). BMDMs were incubated with rVehicle, rCT, or rCT-S100A8/9 for the indicated times and at the indicated concentrations, and then cell viability was measured by MTT assay (bottom, right). […] HLM, human liver microsomes; CYP, cytochrome P450. aTmax, arrival time; AUClast, total area under the plasma concentration-time curve from time 0 to the time of the last measurement; Cmax, maximum plasma concentration;
First reader's note: One record is the S100A8/A9 peptide and the other the recombinant rCT-S100A8/A9 protein; the CYP columns give remaining CYP isoform activity (CYP inhibition).

[4] = system: OxaR CRC cells (HT29, HCT116 and SW480); test: WST-8-based cell viability assay in parental and drug-resistant CRC cell lines
From the text: To establish a CRC cell model resistant to oxaliplatin, doxorubicin, or 5-FU, HT29, HT116, and SW480 cells were exposed to progressively increasing concentrations of oxaliplatin, doxorubicin, or 5-FU. The established oxaliplatin, doxorubicin, and 5-FU resistant cells were named OxaR, DoxR, and 5-FuR cells, respectively.
To confirm the inhibitory effect of rCT-S100A8/A9 on oxaliplatin resistance, the present inventors performed a water-soluble tetrazolium-8 (WST-8)-based cell viability assay using parental cells of three CRC cell lines, HT29, HCT-116 and SW480, and their corresponding oxaliplatin-resistant (OxaR) cell lines. OxaR CRC cells (HT29, HCT116 and SW480) were established by long-term exposure of CRC cells to oxaliplatin as described in Example 1.

BMDMs = type: cell-based, mouse
Experimental: as §3, with “FIGS.” for “The patent's description of the figure: FIGS.”, “[…],” for “P450. aTmax,”

[5] = The results of in vitro plasma stability, microsomal stability, CYP inhibition and PK profile of S100A8/A9 peptides and rCT-S100A8/A9 proteins; remark: listed apart in the source
Experimental: as §1, §2, §3
First reader's note: All values were measured after ip dosing of 1 mg/kg in mice (n = 5); the footnote for the raised a is not printed on the sheet, and the title stands once above both tables.

B1: TWYKIAFQRNRKTWYKIAFQRNRKTWYKIAFQRNRKTWYKIAFQRNRKTWYKIAFQRNRKGGFLVIKGGAHKSHKGGITIITFGGGHHGGFLVIKGGAHKSHKGGITIITFGGGHHGGFLVIKGGAHKSHKGGITIITFGGGHHGG (protein)
chain: TWYKIAFQRNRKTWYKIAFQRNRKTWYKIAFQRNRKTWYKIAFQRNRKTWYKIAFQRNRKGGFLVIKGGAHKSHKGGITIITFGGGHHGGFLVIKGGAHKSHKGGITIITFGGGHHGGFLVIKGGAHKSHKGGITIITFGGGHHGG
modifications: N-terminal 6xHis tag
In the case of B1, the “microsomal stability, remaining” value [1] is reported as 92%, the colonic length ([2]; AOM/DSS) is reported as “restored” and the “histological colonic damage (H&E)” value ([2]; AOM/DSS) is reported as “significant alleviation; also recorded: significantly alleviated”. The “tumor burden in the distal colon” value ([2]; AOM/DSS) was “decreased”, the “β-catenin protein levels in colon (immunohistochemistry)” value ([2]; AOM/DSS) was “effectively suppressed” and the body weight gain ([2]; AOM/DSS, three DSS cycles until week 10) was “higher weight gain rate according to the treatment frequency; also recorded: increased”. The “epithelial-to-mesenchymal transition (profiler PCR array)” value ([2]; CRC colon tissues) was “regulated”, the “number of tumors less than 2 mm” value ([2]; treatment for three consecutive days) was “significantly reduced” and the “Stability (% remaining after 30 min) | HLM” value [3] was 92.1 % remaining after 30 min. For the same molecule, the “efficacy in doxorubicin-resistant (DoxR) and 5-fluorouracil-resistant (5-FuR) CRC cells” value ([4]; 24 h cell viability) was “exhibited efficacy against multidrug resistance”, the “cell viability of OxaR CRC cells” value ([4]; HT29, HCT116, SW480 OxaR, 24 hours) was “reduced the viability of OxaR CRC cells” and the cell viability (BMDMs) was “no significant effect on cell viability”. For the same molecule, the “PK parameters (ip, 1 mg/kg, mice (n = 5))^a | AUClast” value [5] was 235.82 ± 51.48 ng·h/mL, the “PK parameters (ip, 1 mg/kg, mice (n = 5))^a | Cmax” value [5] was 213.12 ± 25.38 ng/mL and the “PK parameters (ip, 1 mg/kg, mice (n = 5))^a | T1/2” value [5] was 1.91 ± 0.42 h. For the same molecule, the “PK parameters (ip, 1 mg/kg, mice (n = 5))^a | Tmax” value [5] was 0.23 ± 0.0 h.
